Assay results: patent US20250295737A1 (AstraZeneca / MedImmune, published 2025)
Substitutions are numbered along the chain they refer to. One block for each binder: values may come before it.

How the values were obtained:
Assay in all cases: cell-based or functional assay
human RXFP1 = biological target: T1, human RXFP1 (human, UniProt Q9HBX9 1-757)
T1 sequence (looked up): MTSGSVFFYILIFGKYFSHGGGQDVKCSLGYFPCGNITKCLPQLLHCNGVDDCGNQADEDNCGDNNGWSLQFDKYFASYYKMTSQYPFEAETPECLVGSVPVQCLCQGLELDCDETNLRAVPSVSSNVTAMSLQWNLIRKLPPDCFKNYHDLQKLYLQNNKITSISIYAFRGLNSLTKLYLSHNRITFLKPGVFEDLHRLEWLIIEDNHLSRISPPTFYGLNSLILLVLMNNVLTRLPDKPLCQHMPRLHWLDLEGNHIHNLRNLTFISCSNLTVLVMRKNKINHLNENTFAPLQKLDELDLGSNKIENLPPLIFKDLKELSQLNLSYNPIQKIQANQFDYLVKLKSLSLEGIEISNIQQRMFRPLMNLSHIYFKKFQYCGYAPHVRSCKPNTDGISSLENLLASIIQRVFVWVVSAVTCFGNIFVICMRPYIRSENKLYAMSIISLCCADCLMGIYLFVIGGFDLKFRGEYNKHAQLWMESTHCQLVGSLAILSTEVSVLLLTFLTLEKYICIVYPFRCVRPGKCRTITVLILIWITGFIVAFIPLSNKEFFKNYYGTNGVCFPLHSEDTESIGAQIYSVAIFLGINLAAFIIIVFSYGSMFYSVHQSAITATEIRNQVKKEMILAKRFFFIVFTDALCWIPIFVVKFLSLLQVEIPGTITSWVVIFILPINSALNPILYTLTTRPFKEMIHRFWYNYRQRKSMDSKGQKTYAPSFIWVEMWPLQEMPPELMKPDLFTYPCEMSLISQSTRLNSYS

human RXFP2 = human RXFP2 (human, UniProt Q8WXD0 1-754)
Sequence of human RXFP2 (Q8WXD0 whole entry): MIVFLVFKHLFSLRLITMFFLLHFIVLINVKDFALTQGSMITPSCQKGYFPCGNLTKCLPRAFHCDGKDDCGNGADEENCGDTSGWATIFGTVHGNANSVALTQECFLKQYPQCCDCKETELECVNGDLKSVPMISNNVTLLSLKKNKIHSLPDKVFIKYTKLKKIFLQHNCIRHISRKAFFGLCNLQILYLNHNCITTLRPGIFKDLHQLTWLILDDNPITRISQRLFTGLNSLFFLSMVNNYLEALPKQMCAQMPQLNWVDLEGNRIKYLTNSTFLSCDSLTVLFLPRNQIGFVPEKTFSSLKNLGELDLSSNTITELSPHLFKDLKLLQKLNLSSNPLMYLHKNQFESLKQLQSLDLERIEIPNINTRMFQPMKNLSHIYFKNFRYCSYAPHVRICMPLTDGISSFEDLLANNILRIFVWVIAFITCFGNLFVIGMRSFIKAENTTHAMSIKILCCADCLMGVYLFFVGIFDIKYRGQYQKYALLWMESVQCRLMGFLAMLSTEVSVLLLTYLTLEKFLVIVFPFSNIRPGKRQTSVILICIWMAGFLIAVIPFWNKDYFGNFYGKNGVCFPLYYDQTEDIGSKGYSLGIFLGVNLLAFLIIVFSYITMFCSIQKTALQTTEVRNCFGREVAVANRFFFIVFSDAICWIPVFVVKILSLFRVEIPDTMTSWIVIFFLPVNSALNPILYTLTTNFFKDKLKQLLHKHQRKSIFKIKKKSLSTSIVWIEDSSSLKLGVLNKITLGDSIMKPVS

mouse RXFP1 = biological target: T2, mouse RXFP1 (mouse, UniProt Q6R6I7 1-758)
T2 sequence (looked up): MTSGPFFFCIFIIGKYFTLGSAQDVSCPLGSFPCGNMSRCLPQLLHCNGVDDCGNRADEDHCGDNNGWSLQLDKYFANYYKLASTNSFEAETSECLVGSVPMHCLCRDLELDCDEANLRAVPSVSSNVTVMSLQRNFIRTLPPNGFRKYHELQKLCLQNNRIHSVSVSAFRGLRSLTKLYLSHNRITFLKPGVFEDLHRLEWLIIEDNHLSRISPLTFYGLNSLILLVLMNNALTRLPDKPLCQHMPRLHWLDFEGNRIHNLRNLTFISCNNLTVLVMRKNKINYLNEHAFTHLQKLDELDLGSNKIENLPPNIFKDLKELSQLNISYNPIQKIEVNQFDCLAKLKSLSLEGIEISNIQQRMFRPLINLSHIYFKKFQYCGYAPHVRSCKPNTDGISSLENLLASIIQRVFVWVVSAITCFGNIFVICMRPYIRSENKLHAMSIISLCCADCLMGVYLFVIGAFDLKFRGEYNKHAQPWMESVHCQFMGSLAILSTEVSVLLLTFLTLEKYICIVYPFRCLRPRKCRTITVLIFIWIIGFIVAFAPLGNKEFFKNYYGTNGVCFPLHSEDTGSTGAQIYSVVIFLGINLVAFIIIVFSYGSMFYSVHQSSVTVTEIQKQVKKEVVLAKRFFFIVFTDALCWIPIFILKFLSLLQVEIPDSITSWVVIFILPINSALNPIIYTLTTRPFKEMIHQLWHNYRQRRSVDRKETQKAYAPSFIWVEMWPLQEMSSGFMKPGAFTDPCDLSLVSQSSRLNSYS

- EC50 hRXFP1 (M), cAMP HTRF assay (human RXFP1): 5.68e-11 M
- EC50 hRXFP2 (M), cAMP HTRF assay (human RXFP2): 3.81e-08 M
- EC50 mRXFP1 (M), cAMP HTRF assay (mouse RXFP1): 4.9e-11 M
B2: RELAX0082 (Fc fusion)
chain 1: DKTHTCPPCPAPEFEGGPSVFLFPPKPKDTLMISRTPEVTCVVVDVSHEDPEVKFNWYVDGVEVHNAKTKPREEQYNSTYRVVSVLTVLHQDWLNGKEYKCKVSNKALPASIEKTISKAKGQPREPQVYTLPPCREEMTKNQVSLWCLVKGFYPSDIAVEWESNGQPENNYKTTPPVLDSDGSFFLYSKLTVDKSRWQQGNVFSCSVMHEALHNHYTQKSLSLSPGGGGGSGGGGGSQLYSALANKCCHVGCTKRSLARFC
chain 2: DKTHTCPPCPAPEFEGGPSVFLFPPKPKDTLMISRTPEVTCVVVDVSHEDPEVKFNWYVDGVEVHNAKTKPREEQYNSTYRVVSVLTVLHQDWLNGKEYKCKVSNKALPASIEKTISKAKGQPREPQVCTLPPSREEMTKNQVSLSCAVKGFYPSDIAVEWESNGQPENNYKTTPPVLDSDGSFFLVSKLTVDKSRWQQGNVFSCSVMHEALHNHYTQKSLSLSPGGGGGSGGGGGSSWMEEVIKLCGRELVRAQIAICGMSTWS

- EC50 hRXFP1 (M), cAMP HTRF assay (human RXFP1): 3.87e-11 M
- EC50 hRXFP2 (M), cAMP HTRF assay (human RXFP2): 6.48e-08 M
- EC50 mRXFP1 (M), cAMP HTRF assay (mouse RXFP1): 3.27e-11 M
B4: RELAX0056 (Fc fusion)
chain 1: DKTHTCPPCPAPEFEGGPSVFLFPPKPKDTLMISRTPEVTCVVVDVSHEDPEVKFNWYVDGVEVHNAKTKPREEQYNSTYRVVSVLTVLHQDWLNGKEYKCKVSNKALPASIEKTISKAKGQPREPQVYTLPPCREEMTKNQVSLWCLVKGFYPSDIAVEWESNGQPENNYKTTPPVLDSDGSFFLYSKLTVDKSRWQQGNVFSCSVMHEALHNHYTQKSLSLSPGAPAPAPAPAPAPAPAPAPAGSQLYSALANKCCHVGCTKRSLARFC
chain 2: DKTHTCPPCPAPEFEGGPSVFLFPPKPKDTLMISRTPEVTCVVVDVSHEDPEVKFNWYVDGVEVHNAKTKPREEQYNSTYRVVSVLTVLHQDWLNGKEYKCKVSNKALPASIEKTISKAKGQPREPQVCTLPPSREEMTKNQVSLSCAVKGFYPSDIAVEWESNGQPENNYKTTPPVLDSDGSFFLVSKLTVDKSRWQQGNVFSCSVMHEALHNHYTQKSLSLSPGAPAPAPAPAPAPAPAPAPAGSSWMEEVIKLCGRELVRAQIAICGMSTWS

- EC50 hRXFP1 (M), cAMP HTRF assay (human RXFP1): 1.88e-11 M
- EC50 hRXFP2 (M), cAMP HTRF assay (human RXFP2): 3.39e-08 M
- EC50 mRXFP1 (M), cAMP HTRF assay (mouse RXFP1): 1.51e-11 M
B6: RELAX0055 (Fc fusion)
chain 1: B2 chain 1 with G227A, G228P, G229A, G230P, S231A, G232P, G233A, G234P, G235A
chain 2: B2 chain 2 with G227A, G228P, G229A, G230P, S231A, G232P, G233A, G234P, G235A

- EC50 hRXFP1 (M), cAMP HTRF assay (human RXFP1): 5.34e-11 M
- EC50 hRXFP2 (M), cAMP HTRF assay (human RXFP2): 1.2e-08 M
- EC50 mRXFP1 (M), cAMP HTRF assay (mouse RXFP1): 3.48e-11 M
B7: RELAX0084 (Fc fusion)
chain 1: B4 chain 1
chain 2: DKTHTCPPCPAPEFEGGPSVFLFPPKPKDTLMISRTPEVTCVVVDVSHEDPEVKFNWYVDGVEVHNAKTKPREEQYNSTYRVVSVLTVLHQDWLNGKEYKCKVSNKALPASIEKTISKAKGQPREPQVCTLPPSREEMTKNQVSLSCAVKGFYPSDIAVEWESNGQPENNYKTTPPVLDSDGSFFLVSKLTVDKSRWQQGNVFSCSVMHEALHNHYTQKSLSLSPGGGGGSGGGGSGGGGSGGGGGSSWMEEVIKLCGRELVRAQIAICGMSTWS

- EC50 hRXFP1 (M), cAMP HTRF assay (human RXFP1): 1.72e-09 M
- EC50 mRXFP1 (M), cAMP HTRF assay (mouse RXFP1): 8.22e-10 M
B8: RELAX0109 (Fc fusion)
chain 1: DKTHTCPPCPAPEFEGGPSVFLFPPKPKDTLMISRTPEVTCVVVDVSHEDPEVKFNWYVDGVEVHNAKTKPREEQYNSTYRVVSVLTVLHQDWLNGKEYKCKVSNKALPASIEKTISKAKGQPREPQVYTLPPCREEMTKNQVSLWCLVKGFYPSDIAVEWESNGQPENNYKTTPPVLDSDGSFFLYSKLTVDKSRWQQGNVFSCSVMHEALHNHYTQKSLSLSPGGGGGSGGGGSGGGGGSQLYSALANKCCHVGCTKRSLARFC
chain 2: DKTHTCPPCPAPEFEGGPSVFLFPPKPKDTLMISRTPEVTCVVVDVSHEDPEVKFNWYVDGVEVHNAKTKPREEQYNSTYRVVSVLTVLHQDWLNGKEYKCKVSNKALPASIEKTISKAKGQPREPQVYTLPPCREEMTKNQVSLWCLVKGFYPSDIAVEWESNGQPENNYKTTPPVLDSDGSFFLYSKLTVDKSRWQQGNVFSCSVMHEALHNHYTQKSLSLSPGAAPAPAPAPAPAPAGSSWMEEVIKLCGRELVRAQIAICGMSTWS

Further lines, the binder ahead of its results:

B1: RELAX0081 (Fc fusion)
chain 1: B8 chain 1
chain 2: DKTHTCPPCPAPEFEGGPSVFLFPPKPKDTLMISRTPEVTCVVVDVSHEDPEVKFNWYVDGVEVHNAKTKPREEQYNSTYRVVSVLTVLHQDWLNGKEYKCKVSNKALPASIEKTISKAKGQPREPQVCTLPPSREEMTKNQVSLSCAVKGFYPSDIAVEWESNGQPENNYKTTPPVLDSDGSFFLVSKLTVDKSRWQQGNVFSCSVMHEALHNHYTQKSLSLSPGGGGGSGGGGSGGGGGSSWMEEVIKLCGRELVRAQIAICGMSTWS
- EC50 hRXFP1 (M), cAMP HTRF assay (human RXFP1): 4.51e-11 M
- EC50 hRXFP2 (M), cAMP HTRF assay (human RXFP2): 4.92e-08 M
- EC50 mRXFP1 (M), cAMP HTRF assay (mouse RXFP1): 4.73e-11 M

B3: RELAX0083 (Fc fusion)
chain 1: DKTHTCPPCPAPEFEGGPSVFLFPPKPKDTLMISRTPEVTCVVVDVSHEDPEVKFNWYVDGVEVHNAKTKPREEQYNSTYRVVSVLTVLHQDWLNGKEYKCKVSNKALPASIEKTISKAKGQPREPQVYTLPPCREEMTKNQVSLWCLVKGFYPSDIAVEWESNGQPENNYKTTPPVLDSDGSFFLYSKLTVDKSRWQQGNVFSCSVMHEALHNHYTQKSLSLSPGGGGGGSQLYSALANKCCHVGCTKRSLARFC
chain 2: DKTHTCPPCPAPEFEGGPSVFLFPPKPKDTLMISRTPEVTCVVVDVSHEDPEVKFNWYVDGVEVHNAKTKPREEQYNSTYRVVSVLTVLHQDWLNGKEYKCKVSNKALPASIEKTISKAKGQPREPQVCTLPPSREEMTKNQVSLSCAVKGFYPSDIAVEWESNGQPENNYKTTPPVLDSDGSFFLVSKLTVDKSRWQQGNVFSCSVMHEALHNHYTQKSLSLSPGGGGGGSSWMEEVIKLCGRELVRAQIAICGMSTWS
- EC50 hRXFP1 (M), cAMP HTRF assay (human RXFP1): 2.81e-11 M
- EC50 hRXFP2 (M), cAMP HTRF assay (human RXFP2): 2.42e-08 M
- EC50 mRXFP1 (M), cAMP HTRF assay (mouse RXFP1): 1.34e-11 M

B5: RELAX0054 (Fc fusion)
chain 1: DKTHTCPPCPAPEFEGGPSVFLFPPKPKDTLMISRTPEVTCVVVDVSHEDPEVKFNWYVDGVEVHNAKTKPREEQYNSTYRVVSVLTVLHQDWLNGKEYKCKVSNKALPASIEKTISKAKGQPREPQVCTLPPSREEMTKNQVSLSCAVKGFYPSDIAVEWESNGQPENNYKTTPPVLDSDGSFFLVSKLTVDKSRWQQGNVFSCSVMHEALHNHYTQKSLSLSPGAAPAPAPAPAPAPAGSQLYSALANKCCHVGCTKRSLARFC
chain 2: B8 chain 2
- EC50 hRXFP1 (M), cAMP HTRF assay (human RXFP1): 2.89e-11 M
- EC50 hRXFP2 (M), cAMP HTRF assay (human RXFP2): 1.53e-08 M
- EC50 mRXFP1 (M), cAMP HTRF assay (mouse RXFP1): 1.59e-11 M
